Earlier results in article PMC5519984.
Like-named read-outs stand apart in the source and are kept apart here.

Experiments:
[1] = target: Ras (Homo sapiens) (UniProt P01112)
[2] = target: Ras (Homo sapiens) (UniProt P01112); remark: listed apart in the source

Kd [1]: 28 µM
Kd [2]: 158 µM
Substance: HBS3 929-944 (from UniProt Q07889)
